Data on 34 sequences can be found in the NTF2 design screens of Basanta et al. (2020).

The nature of the data set: protease stability score; higher = more stable; yeast display proteolysis, trypsin and chymotrypsin.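 Also: relative to predicted unfolded state with 0 unfolded-like and 1 meaning tenfold more protease.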
Regarding “DEENERVHQALRDWRHIHRTGDEESTRHNMDPNARLDVNGVEVHGMEKVSEMFVELRIEHLHLERVHTQGEKVEVHTHVEVRQGDKRQEVKVIIFYIKINGRWFVERFEIH”, the protease stability score turned out to be 0.85.
The value for “SEDEELAKRIAKLWIELHLTGNEDTIKQLMDPRVLVRIHINGVDIHLHGREHVIRHHRETMKHLGWSKVHLELKDSKFIGEYLHMDVRMNVNGQEHHVELEIIVINGRMKEIRINIE” was 2.02.
The value for “DEREKLAKKFLELFLHYIETGDEEVLRKLLDPSTRLEVNGRDNHGWKMFIWLLRELRIHRVHMELKVTDIQGDYVRNEGRLRSDVEYGDKRFETEYMVIIFLEKVDGRWHLHSFEVD” was 1.56.
The value for “DEDERELQELREHFIRKFLTGDWEAIANLFDPNTRMNFNGREVHGMEEVMRVFWEIMEKLGVDHQTIHDVKWQGDKLEVHSYLDINGRRHKLRIELQVIDGVIRSVHFEIE” was 1.21; that for “SERKQASEDAFRIYIETFKTGDERTMRENMDPDVRVHIGEFNHHGMEESAHLLHEYWKRFGFRIRHVHIEDVKNVGNKVILHTLSEIEINGREEHVDTELIILKIDGKWLVEEVRVK” was 0.92; that for “SELEESLEKFLRALRHLTETGDEDTWKRLLDPTTRLEINGKEIHGREDVSRHWKELRFRSEDPKDYKIVDGVLRLDTRVDGVFNGQHREVDVEVIVFKVDGRWEIKRIRYH” was 1.56.
In turn, “DEHEKIIKHFLELFMWALRTGDEEINRHLVDPNVRVDVNGVILIGREEVVHYLRHLQEKLGMEIEEVRVEDMSVFDGRLHVDMRIHGRIGDKHTTIETHYLILKFDGRWILEHRRIR” returned a protease stability score of 2.37.
In turn, “DHQEEEAKEFTELLMRNLFTGDEDSLQEMLDPHVRIEVDIGDKHRHHHGREEISHFLVRLQHELGVDHIRLSHIEVFNGRAEVHIESYIGNKRSENVFVVTKFNGVWRVQRIIIRVE” returned a protease stability score of 1.2.
The value for “TEEETETRNLLELFIRSLHTGDEDLTKRLLDPNVRLELGEWEAHGRESVSEVLRLLWELLGVKHIEHHVHDMRVFNGRVHADTRVIMVFDGREHRIETELIVVKIDGRWFIKSIHIR” was 1.61.
The value for “DKEHKESTKATHDVLRSWKTGDERFREELADPNARMEFNGREHVGREFMSELLRHLWEELGVDHMELKRVIIQGDKIHIDMDLTVGDKSIHLHVTVQKINGKWIIKSIRLELT” was -0.192; that for “DEKEEEYKEMIRIMVEYLETGNEEDMNRLLDPHTKTEYHQGDKSDEFHGREEFMRLWQELGIDHFRVRDVDIVDGRVRIESELIVGDKRFNSYFFLIVVNGRATSASIHVE” was 2.27.
With “DEREQEAHRAIEKFMHYVRTGNEDKLKEFLDPNALNLFDGRHDVGREDVTESMIEIMRHLGVTLHDVKITDMRTQGDYLTVNGWFNLEYDGVRDNHKVFIHSRKVDGKWIITKIDWR” the figure was 1.26.
In turn, “DEREKEHETQIRLLIHAIQTGDESMFHKMMDPNVRIQVGDKHIHGREFFVEIFKKLIDRYPGIQLHIRIHSIRFQGEKVTIDERLEIIVGDKEMRFETEIFSQKVNGRWLIEFERIQ” had a protease stability score of 0.579.
With “SEDIELVHNIMEHMAKAFTTGDERHLLNLFDPNVRFMINGQNYVGWEHLINWIEHIRIKRVDLRINDVKLIGDKLHIHGRFIVRGQIDGREIDRVEDTRINFQKINGRWIIEELHFV” the figure was 2.61; with “SEEHEKLHHLMELMLNAITTGDWEIIEHLADPNVRIDQGEWHDHGREKLIHIHELVRERMGIKHVEVRDSRMFHINGVVVIILRLDLNVNGKHRFEILRLQFRKVDGQWVMHSLDIELR”, 1.74.
The value for “DETTELVHRLIELFLNSLHTGDEKTMVKLADPHARVEVRINGRKEEYHGMEHWSEHLIRRLEHLRIEIRIHDMQWFEGHAQVHTELIVRYDGKEMRTSVQVHLFIVNGRFKSSIVIIH” was 1.05.
The value for “SDEERLLHELLHRVLHKRVTGDEESIWREIDPRARIDVNGRDVHGRDHFFEFIVKWMMHYGINHLEIKNQREIDGRIDVDFHEEVGDKRFHVRIIFHKINGRWHLTQEVFT” was 1.19; that for “DEDREQYREIMSHIWHSIHTGDEETQEDMADPDARFIIGDKTFIGWKQFYEKLREIRIHIDHVHIRHIEVQGDKFRVEFQIHRTIIYNGRNLHETTEAETHLHVVNGRLHSWSFRVR” was 0.885; that for “SEHEEYNRELSELFWHWFQTGDEEMMNKNVDPDARMIVGEKTHHGWEEFVKLLRETLKRLGADHIILRRMNVQGNKSHIDGEIRINGVTIKTELDLVVVDGRISSLRLSFH” was 1.05.
The sequence “DEEEEHAEHMLRLWFHILHTGDWEDLVRLIDPNARLRVGDKTFHGMERLVRRHLEHKRRLGLDNFDFQVDNFEVYGDKIDIDVTENINGREYKVIIHIIVINGRVKNMHIKIN” displayed a protease stability score of 0.925.
With “DEKREESERALNHLFKSMLTGDEEDVRKLADPHAKFIINGRSDIGRESVSHHWHRLWRELGVKHLDVRSFRVYDGRVDSKTRVEIGDKEHEMEVYIVKVNGRWHIEELEFR”, the protease stability score is -0.12.
The value for “DERTLEQLLQDFINNMQTGDHQSLKDLLDENARVNIGDKTLSGRERVTTALKRLMRRVDHIQVDHYEVTNGEMNIDMQLEVNGVRVKVEVIIEVHNGKAKFIEFRVRNEEQWERVEG” was 2.19; that for “DEDEKKLHKLSDELEHIWLTGDEDRWLELADPNTKVIINGKEVHGRENVAREIKKFLEDLGIDHFYIESSLAIDGRTDLNGQIHVNGRTLHVRIINHEFNGRVKRVEIHIR” was 2.09.
“SKEDEDFNERTREWLEILETGDWRKLARLLDPNVLNIVGDKEHHGREEVIKSFRTYLEKVPNMRFTTRRIRLQGDKVDLDGDLYFNGKEIKVRIFLVIYDGRVHSMEVREE” returned a protease stability score of 1.09.
With “DDSEEHAEEVVRELSESLRTGDEKSVDRLLDPNVKFIINGVEYVGRELFLELFKKTLEEIRIESIEVTHIDIQGEKVRLETKEHAIINGKRFQFKTEVIMRKVNGRWEIQELRFE” the figure was 1.98.
The value for “SEEDRDVRHFLEVWWHRVQTGDEDSLHELADPRMRVDINGRILHGREHISRFMIELTESFGATPEDFQIEHVDTVGNKVHIKTRIFIRQGNFNLIRDTEMIVLKVDGRWLLTEVRVR” was 2.6; that for “DEEKDHAQMFLELWRHFLETGDEEFLERLADPHVKSLINGVEHHGREIMYKYLIKFLRRLGVDRVHTEVRIHHMHVINGVAFFDGTLHLNFNGQTYSRRVEIIVYKVNGRWHLHEFRIE” was 1.74; that for “DEDTEQLEWILKLHLEISRTGDEHSEHHMVDPNTRIEVGDKELHGREEIVKWFAHIRIDHIDIKRYHIFNGRVRIDGRVEGNVDGRETTMRVIFLSDKFNGRWRHRSVIVR” was 1.53.
In turn, “DEREELAEHMIRLLTERLITGDERIEQELADPNVRFELDINGKSVDTHGMENVLEWIRKWYEHFGVTNFDLRIHRIRVIGEYAHNDGEIIQGDKTRRVHIRMVVINGRVHEVIIHVR” registered a protease stability score of 1.22.
“DEEDEEFKRAMDDWIRAILTGDEQRVEELFDPNVRFQVNGKETVGRDFLIHYVREWRLDSKVDIKRSEVQGDKVRVDVTMKLTIDVNGQRIHDQHKVTIIAEKIDGRWEIKELIVH”: the protease stability score came to 0.676.
Sequence “DENRKFARVMTELILHSWYTGDWELDVKLADPNVLNDFNGKEIHGMENVSRQFIEMRIDDVRIRDLRIEVYGEKLISKIDGERNGHFDGRTVDTRMHLELIMEKINGRWIIREIRIEVK” came in with a protease stability score of 2.59.
The sequence “SEHDEQAEDWTRKHIHWFETGDEELLETLLDPNTRHIVDGQEYHGRENLRRMFHYLLSFMGIKYVRLTNHEVVGDKAHIHMTTNVNGQHTRLILHLIVINGRVHTIEIRVR” displayed a protease stability score of 0.544.
With “DESEESSKEAWRLLLEMWKTGDEDEYSRMIDPNVRIEIGDKHFHGMEHASKRLQTFLKKLGFKHFRMILRDKDSQGNKIEIDLQIDIHQGDYHIHRRVTLILVKVDGKWSVESHHVI” the figure was 1.68.
“DERDELVRQLMEWLVRAYITGDFETLKNLFDPNAKVRVNGRELIGMETFWQLLWHLRFTDHKIDSVEMQGEKVTVNVTLFIDVNGREETKKSHLIFVVVNGRLKSMDFRYE” returned a protease stability score of 1.66.
